# Test results reported in US20220267751A1.
# Target: recombinant streptokinase from Streptococcus pyrogenes (so in the source) (Streptococcus pyrogenes (so in the source))
# Assay: SPR (Biacore T200), SK on Ni2+-NTA chip, 1:1 Langmuir model
# Chain of native plasminogen (purchased from Merck, purified from human plasma) (P00747 20-810 limits assumed): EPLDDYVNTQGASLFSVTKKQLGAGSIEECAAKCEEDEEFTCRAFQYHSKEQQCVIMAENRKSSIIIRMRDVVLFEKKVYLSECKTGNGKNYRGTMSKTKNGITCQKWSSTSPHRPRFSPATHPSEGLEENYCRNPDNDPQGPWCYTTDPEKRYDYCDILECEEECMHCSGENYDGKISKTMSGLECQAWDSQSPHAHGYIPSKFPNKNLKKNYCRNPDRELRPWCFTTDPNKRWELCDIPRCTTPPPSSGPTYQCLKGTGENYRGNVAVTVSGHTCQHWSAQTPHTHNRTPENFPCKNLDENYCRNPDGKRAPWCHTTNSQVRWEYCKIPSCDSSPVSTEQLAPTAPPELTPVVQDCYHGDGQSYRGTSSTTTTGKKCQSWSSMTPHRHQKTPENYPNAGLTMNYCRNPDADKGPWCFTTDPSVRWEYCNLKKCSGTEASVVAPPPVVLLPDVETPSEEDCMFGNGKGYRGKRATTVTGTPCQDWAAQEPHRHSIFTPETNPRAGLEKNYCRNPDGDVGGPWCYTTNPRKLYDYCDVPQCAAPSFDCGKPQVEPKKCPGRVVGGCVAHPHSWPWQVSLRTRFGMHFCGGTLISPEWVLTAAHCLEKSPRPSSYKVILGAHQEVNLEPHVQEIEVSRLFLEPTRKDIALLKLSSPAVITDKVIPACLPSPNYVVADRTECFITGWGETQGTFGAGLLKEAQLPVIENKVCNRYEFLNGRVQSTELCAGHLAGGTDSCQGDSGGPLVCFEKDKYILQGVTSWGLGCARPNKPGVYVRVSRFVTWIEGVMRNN
# Chain of recombinant plasminogen (P00747 20-810 limits assumed): as above
# Chain of native plasmin (purchased from Haematologic Technologies) (P00747 97-580 limits assumed): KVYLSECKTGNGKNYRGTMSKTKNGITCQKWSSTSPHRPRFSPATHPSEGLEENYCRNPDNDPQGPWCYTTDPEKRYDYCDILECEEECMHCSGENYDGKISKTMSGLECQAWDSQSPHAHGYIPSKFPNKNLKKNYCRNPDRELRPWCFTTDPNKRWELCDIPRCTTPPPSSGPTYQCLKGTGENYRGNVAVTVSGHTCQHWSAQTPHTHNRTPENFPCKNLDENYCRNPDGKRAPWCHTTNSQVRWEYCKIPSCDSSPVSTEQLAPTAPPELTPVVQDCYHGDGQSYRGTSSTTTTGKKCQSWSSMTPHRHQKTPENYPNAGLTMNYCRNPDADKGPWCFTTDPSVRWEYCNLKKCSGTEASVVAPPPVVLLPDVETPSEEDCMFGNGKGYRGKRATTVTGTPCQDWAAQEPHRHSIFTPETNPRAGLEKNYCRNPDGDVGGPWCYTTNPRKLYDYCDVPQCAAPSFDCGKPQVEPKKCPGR
# Chain of native plasmin (purchased from Haematologic Technologies) (P00747 581-810 limits assumed): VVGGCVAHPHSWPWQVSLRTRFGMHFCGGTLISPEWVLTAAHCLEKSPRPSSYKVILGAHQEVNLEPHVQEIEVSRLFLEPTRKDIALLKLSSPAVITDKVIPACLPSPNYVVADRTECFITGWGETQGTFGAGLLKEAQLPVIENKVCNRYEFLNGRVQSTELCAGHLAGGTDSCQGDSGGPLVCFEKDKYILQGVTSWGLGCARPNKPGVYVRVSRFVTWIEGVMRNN
Substance,Kd [nM],koff [s⁻¹],kon [M⁻¹ s⁻¹]
native plasmin (purchased from Haematologic Technologies) (from UniProt P00747 97-580; P00747 581-810) (enzyme),0.33,0.0023,7.1e+06
"native plasminogen (purchased from Merck, purified from human plasma) (from UniProt P00747 20-810)",1.4,0.00032,230000
recombinant plasminogen (from UniProt P00747 20-810),1.4,0.00036,270000
